From doi:10.1101/2021.11.15.468682

Molecular target: T1, HsPlk4 PB3 (aa 884-970) (Homo sapiens), O00444
T1 chain: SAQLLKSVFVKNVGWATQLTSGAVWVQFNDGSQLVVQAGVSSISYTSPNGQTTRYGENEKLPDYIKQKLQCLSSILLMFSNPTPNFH
Assay: SEC-MALS
Details: remark: other sources report otherwise

B1: HsPlk4 PB3 (aa 884-970), O00444 884-970 (domain or fragment)
chain: SAQLLKSVFVKNVGWATQLTSGAVWVQFNDGSQLVVQAGVSSISYTSPNGQTTRYGENEKLPDYIKQKLQCLSSILLMFSNPTPNFH
- stoichiometry N: 2
